Patent US20250304666A1 (ALCHEMAB THERAPEUTICS, published 2025)

T1: reduced CFHR1 (UniProt Q03591 19-330, limits assumed)
T1 sequence (looked up): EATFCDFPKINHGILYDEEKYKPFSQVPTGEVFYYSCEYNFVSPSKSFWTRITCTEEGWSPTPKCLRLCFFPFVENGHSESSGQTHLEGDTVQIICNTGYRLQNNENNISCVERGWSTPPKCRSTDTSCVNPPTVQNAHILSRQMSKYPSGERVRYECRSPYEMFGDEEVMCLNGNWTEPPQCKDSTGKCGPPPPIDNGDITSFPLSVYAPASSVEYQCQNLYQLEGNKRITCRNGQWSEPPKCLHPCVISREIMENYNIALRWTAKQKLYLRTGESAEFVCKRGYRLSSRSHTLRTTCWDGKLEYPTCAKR

T2: reduced CFHR2 (UniProt P36980 19-270, limits assumed)
T2 sequence (looked up): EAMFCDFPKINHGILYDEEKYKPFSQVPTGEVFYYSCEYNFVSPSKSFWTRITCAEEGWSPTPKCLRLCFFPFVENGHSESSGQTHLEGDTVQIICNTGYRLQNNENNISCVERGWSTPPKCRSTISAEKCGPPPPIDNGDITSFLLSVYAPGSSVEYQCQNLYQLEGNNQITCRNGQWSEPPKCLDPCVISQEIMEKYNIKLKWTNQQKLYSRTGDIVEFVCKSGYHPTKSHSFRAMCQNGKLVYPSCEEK

T3: reduced CFHR3 (UniProt Q02985 19-330, limits assumed)
T3 sequence (looked up): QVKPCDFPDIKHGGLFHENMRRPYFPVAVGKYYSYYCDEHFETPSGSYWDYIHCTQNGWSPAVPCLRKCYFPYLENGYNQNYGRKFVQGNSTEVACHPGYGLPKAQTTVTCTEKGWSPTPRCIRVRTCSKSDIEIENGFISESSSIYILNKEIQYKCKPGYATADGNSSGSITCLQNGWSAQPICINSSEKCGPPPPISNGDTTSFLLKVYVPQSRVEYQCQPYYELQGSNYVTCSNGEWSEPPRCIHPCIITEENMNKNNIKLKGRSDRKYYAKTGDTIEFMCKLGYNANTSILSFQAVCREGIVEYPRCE

T4: reduced CFHR5 (UniProt Q9BXR6 19-569, limits assumed)
T4 sequence (looked up): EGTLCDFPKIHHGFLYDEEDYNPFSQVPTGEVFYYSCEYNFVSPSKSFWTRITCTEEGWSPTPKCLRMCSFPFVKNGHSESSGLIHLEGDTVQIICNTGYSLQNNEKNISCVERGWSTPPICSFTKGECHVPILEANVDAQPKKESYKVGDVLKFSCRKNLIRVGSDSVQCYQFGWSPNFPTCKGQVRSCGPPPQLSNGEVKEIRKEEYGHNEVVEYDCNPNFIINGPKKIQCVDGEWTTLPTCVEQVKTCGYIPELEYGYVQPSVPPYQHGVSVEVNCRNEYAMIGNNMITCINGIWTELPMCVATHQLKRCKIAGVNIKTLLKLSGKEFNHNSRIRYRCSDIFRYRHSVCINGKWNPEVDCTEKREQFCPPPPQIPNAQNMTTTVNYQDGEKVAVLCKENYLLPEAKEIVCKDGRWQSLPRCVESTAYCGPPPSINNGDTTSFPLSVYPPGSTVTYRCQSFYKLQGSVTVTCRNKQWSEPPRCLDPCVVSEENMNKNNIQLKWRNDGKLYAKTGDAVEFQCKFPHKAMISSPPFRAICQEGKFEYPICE

T5: reduced CFH (Homo sapiens (Human), UniProt P08603 860-1231, limits assumed)
T5 construct: also called CFH (reduced)
T5 sequence: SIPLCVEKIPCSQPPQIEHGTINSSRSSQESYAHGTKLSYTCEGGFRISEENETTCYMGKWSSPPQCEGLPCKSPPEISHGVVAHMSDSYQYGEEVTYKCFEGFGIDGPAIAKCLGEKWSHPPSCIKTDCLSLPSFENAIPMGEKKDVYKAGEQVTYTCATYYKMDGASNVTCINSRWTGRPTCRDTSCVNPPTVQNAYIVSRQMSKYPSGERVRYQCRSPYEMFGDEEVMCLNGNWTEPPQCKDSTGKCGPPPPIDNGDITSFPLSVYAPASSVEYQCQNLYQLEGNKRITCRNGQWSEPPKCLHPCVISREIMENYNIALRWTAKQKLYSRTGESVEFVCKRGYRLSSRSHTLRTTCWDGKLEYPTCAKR

T6: non-reduced CFH
T6 construct: also called CFH (NON-REDUCED)
T6 chain: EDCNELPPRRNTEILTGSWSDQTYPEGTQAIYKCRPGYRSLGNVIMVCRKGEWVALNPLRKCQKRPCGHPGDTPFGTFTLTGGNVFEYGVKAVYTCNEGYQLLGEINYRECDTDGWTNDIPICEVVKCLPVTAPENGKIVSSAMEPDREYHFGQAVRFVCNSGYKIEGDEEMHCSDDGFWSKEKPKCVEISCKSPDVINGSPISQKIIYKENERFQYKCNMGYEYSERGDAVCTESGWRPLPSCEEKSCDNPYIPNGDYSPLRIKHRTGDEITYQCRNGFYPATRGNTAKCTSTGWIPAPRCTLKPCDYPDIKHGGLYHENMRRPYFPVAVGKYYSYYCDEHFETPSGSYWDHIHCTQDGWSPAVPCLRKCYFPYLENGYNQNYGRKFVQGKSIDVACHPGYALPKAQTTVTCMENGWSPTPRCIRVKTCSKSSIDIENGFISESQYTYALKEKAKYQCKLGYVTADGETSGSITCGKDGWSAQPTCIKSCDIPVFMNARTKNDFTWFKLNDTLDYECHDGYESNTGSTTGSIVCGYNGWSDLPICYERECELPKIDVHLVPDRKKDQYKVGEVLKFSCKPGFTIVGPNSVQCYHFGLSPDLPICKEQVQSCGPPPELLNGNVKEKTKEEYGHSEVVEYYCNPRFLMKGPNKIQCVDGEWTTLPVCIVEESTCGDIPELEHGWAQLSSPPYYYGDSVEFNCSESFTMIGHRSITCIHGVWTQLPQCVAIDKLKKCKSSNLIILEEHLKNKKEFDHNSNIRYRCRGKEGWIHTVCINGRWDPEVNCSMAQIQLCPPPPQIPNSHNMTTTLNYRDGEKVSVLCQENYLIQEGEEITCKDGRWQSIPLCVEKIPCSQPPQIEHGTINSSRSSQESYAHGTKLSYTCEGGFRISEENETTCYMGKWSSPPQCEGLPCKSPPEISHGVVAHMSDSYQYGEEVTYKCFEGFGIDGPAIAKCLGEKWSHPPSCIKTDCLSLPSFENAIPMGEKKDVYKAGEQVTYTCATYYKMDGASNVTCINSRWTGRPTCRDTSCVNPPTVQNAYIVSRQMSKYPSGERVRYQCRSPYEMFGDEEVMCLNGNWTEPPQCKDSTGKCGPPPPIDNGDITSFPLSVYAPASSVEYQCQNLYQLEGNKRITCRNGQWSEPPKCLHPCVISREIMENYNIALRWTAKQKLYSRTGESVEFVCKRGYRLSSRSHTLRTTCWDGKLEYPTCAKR

T7: non-reduced CFHR1
T7 construct: also called CFHR1 (NON-REDUCED)
T7 chain: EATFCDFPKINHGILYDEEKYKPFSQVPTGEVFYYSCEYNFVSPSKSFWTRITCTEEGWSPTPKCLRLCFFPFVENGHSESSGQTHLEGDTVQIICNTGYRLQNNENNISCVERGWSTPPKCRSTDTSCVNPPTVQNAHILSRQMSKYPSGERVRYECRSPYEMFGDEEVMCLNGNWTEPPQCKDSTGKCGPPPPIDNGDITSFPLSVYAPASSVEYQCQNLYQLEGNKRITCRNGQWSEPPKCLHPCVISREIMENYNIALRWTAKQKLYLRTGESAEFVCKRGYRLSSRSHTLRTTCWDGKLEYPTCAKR

T8: non-reduced CFHR2
T8 construct: also called CFHR2 (NON-REDUCED)
T8 chain: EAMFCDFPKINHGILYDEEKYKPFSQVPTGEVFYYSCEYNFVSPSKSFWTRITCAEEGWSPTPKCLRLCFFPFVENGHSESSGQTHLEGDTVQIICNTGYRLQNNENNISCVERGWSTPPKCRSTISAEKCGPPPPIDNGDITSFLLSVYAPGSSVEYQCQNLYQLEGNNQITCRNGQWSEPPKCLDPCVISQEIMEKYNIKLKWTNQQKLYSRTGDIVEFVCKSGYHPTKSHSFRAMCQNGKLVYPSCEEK

T9: non-reduced CFHR3
T9 construct: also called CFHR3 (NON-REDUCED)
T9 chain: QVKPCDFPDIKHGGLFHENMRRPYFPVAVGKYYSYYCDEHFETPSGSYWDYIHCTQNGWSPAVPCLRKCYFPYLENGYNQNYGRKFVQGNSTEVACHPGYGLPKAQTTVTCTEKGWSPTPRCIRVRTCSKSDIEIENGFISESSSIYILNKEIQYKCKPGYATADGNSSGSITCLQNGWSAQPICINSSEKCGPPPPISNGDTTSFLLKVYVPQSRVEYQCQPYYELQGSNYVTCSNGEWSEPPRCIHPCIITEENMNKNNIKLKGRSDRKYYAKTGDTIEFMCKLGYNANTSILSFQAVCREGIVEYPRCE

T10: non-reduced CFHR5
T10 construct: also called CFHR5 (NON-REDUCED)
T10 chain: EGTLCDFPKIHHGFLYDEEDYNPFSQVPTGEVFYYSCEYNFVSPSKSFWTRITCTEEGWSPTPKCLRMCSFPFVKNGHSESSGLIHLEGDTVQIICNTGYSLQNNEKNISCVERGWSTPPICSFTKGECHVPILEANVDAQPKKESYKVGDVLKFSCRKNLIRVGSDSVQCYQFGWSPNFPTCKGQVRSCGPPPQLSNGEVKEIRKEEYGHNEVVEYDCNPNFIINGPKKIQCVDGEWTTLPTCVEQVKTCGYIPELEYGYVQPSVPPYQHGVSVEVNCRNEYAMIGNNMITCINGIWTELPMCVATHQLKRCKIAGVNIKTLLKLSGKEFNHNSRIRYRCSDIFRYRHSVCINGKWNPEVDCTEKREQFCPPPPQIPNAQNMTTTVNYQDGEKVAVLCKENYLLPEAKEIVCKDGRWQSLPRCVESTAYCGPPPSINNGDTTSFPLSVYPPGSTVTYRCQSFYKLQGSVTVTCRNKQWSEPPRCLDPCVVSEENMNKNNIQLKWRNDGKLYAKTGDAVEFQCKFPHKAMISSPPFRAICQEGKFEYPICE


Assays:
reduced CFHR1 = target: T1, reduced CFHR1; test: ELISA, reduced antigen
reduced CFHR2 = target: T2, reduced CFHR2; test: ELISA, reduced antigen
reduced CFHR3 [1] = target: T3, reduced CFHR3; test: ELISA, reduced antigen
reduced CFHR5 [2] = target: T4, reduced CFHR5; test: ELISA, reduced antigen
reduced CFH [3] = target: T5, reduced CFH; test: ELISA, reduced antigen
non-reduced CFH = target: T6, non-reduced CFH; test: ELISA, non-reduced antigen
non-reduced CFHR1 = target: T7, non-reduced CFHR1; test: ELISA, non-reduced antigen
non-reduced CFHR2 = target: T8, non-reduced CFHR2; test: ELISA, non-reduced antigen
non-reduced CFHR3 = target: T9, non-reduced CFHR3; test: ELISA, non-reduced antigen
non-reduced CFHR4 = target: T11, non-reduced CFHR4; test: ELISA, non-reduced antigen
T11 construct: not reduced; also called CFHR4 (NON-REDUCED)

non-reduced CFHR5 = target: T10, non-reduced CFHR5; test: ELISA, non-reduced antigen
reduced CFH [4] = target: T5, reduced CFH; test: ELISA on reduced CFH after heating the mAb (70 C, 1 h, as Figure 16)
reduced CFHR3 [5] = target: T3, reduced CFHR3; test: ELISA on reduced CFHR3
reduced CFHR5 [6] = target: T4, reduced CFHR5; test: ELISA on reduced CFHR5

Row | Binder | fold change vs isotype at 1 ug/ml (reduced CFHR1) | fold change vs isotype at 1 ug/ml (reduced CFHR2) | binding result (reduced CFHR3 [1]) | fold change vs isotype at 1 ug/ml (reduced CFHR3 [1]) | binding result (reduced CFHR5 [2]) | fold change vs isotype at 1 ug/ml (reduced CFHR5 [2]) | fold change vs isotype at 1 ug/ml (reduced CFH [3]) | fold change vs isotype at 1 ug/ml (non-reduced CFH) | fold change vs isotype at 1 ug/ml (non-reduced CFHR1) | fold change vs isotype at 1 ug/ml (non-reduced CFHR2) | binding result (non-reduced CFHR3) | fold change vs isotype at 1 ug/ml (non-reduced CFHR3) | fold change vs isotype at 1 ug/ml (non-reduced CFHR4) | binding result (non-reduced CFHR5) | fold change vs isotype at 1 ug/ml (non-reduced CFHR5) | Harsh Heat challenge ELISA value (reduced CFH [4]) | binding result (reduced CFHR3 [5]) | binding result (reduced CFHR5 [6])
1 | ATL_0004715 (antibody, human IgG1, kappa, V domains shown, also called ATL4715) VH: EVQLVESGGGVVQPGRSLRLSCAASGFTFSRYGMHWVRQAPGKGLEWVAVMSYDGSTKYYADSVKGRFAISRDNPKNTLFLQMNSLRPDDTAVYYCAKGGAAAAVMDVWGKGTTVTVSS VL: DIVMTQSPDSLTVSLGERATISCKSSQRLLYSSNNKNYLAWYQQKPGQPPKLLMYWASTRESGVPDRFSGSGSGTDFSLTISSLQAEDVAVYYCQQYYNPPWTFGQGTKVEVKR | 22.9 fold | 9.9 fold | no binding (tested: 1 ug/ml) | 0.9 fold | no binding (tested: 1 ug/ml) | 1 fold | 17.2 fold | 10 fold | 10.1 fold | 3.9 fold | no binding (tested: 1 ug/ml) | 1 fold | 0.9 fold | no binding (tested: 1 ug/ml) | 0.9 fold | 0.09 | – | –
2 | ATL_0005155 (antibody, human IgG1, kappa, V domains shown, one of the 10 lead mAbs; IgG1; also called ATL5155; ATL_0005155-001) VH: QVQLVESGGGVVQPGRSLRLSCAASGFTFSNYGMHWVRQAPGKGLEWVAVTSFDGKTKYYADSVKGRFTISRDNSKNTLYLQMNSLRAEDTAVYYCAKGGATAAVFDSWGQGTLVTVSS VL: not shown | 23 fold | 11.3 fold | – | 1 fold | – | 1 fold | – | – | 13 fold | 7 fold | no binding (tested: 1 ug/ml) | 1 fold | 1 fold | no binding (tested: 1 ug/ml) | 1 fold | – | no binding (tested: 100 ug/ml) | no binding (tested: 100 ug/ml)
